Patent US20210380703A1 (RIGEL PHARMACEUTICALS, published 2021)
Numbering of substitutions follows the chain as printed.

B1: 366_D04 (antibody, V domains shown)
VH: EVQLLESGGGLVQPGGSLRLSCAASGFTFSSYSMNWVRQAPGKGLEWVSGINYNGGYTSYADSVKGRFTISRDNSKNTLYLQMNSLRAEDTAVYYCARSANWHDTALDYWGQGTLVTVSS
VL: DIQMTQSPSSLSASVGDRVTITCRASQSISSYVNWYQQKPGKAPKLLIYATTSRASGVPSRFSGSGSGTDFTLTISSLQPEDFATYYCQQSYETPLTFGGGTKVEIK
notes: VH/VL only
B2: 367_E07 (antibody, V domains shown)
VH: B1 VH with S31D, G50S, T58K, S59G, S99G, N101T, A106H
VL: B1 VL with S30L, L47V, T51A, T94N
notes: VH/VL only
B3: 366_F05 (antibody, V domains shown)
VH: B1 VH with S49A, G50N, G55S, T58K, A106H
VL: B1 VL with S30L, S31T, V33L, T51A, Y92D, E93N
notes: VH/VL only
B4: 367_C08 (antibody, V domains shown)
VH: B1 VH with S30D, N35H, S49A, S99G, N101T, A106H
VL: B1 VL with S30L, S31T, V33L, T51A, R54L, Y92D, E93S, T94N
notes: VH/VL only
B5: 368_D02 (antibody, V domains shown)
VH: B1 VH with S30D, S31D, S33G, G50N, S59G, S99G, N101T, A106H
VL: B1 VL with S31T, V33L, L47V, T51A, A55H, E93D
notes: VH/VL only
B6: 368_D12 (antibody, V domains shown)
VH: B1 VH with S33G, G50S, S99G, N101T, A106H
VL: B1 VL with S30L, L47V, T51A, E93N, T94N
notes: VH/VL only
B7: 367_B03 (antibody, V domains shown)
VH: B1 VH with S33G, S49A, T58K
VL: B1 VL with S30L, S31T, V33L, T51A, R54L, E93N, T94L
notes: VH/VL only
B8: 367_A04 (antibody, V domains shown)
VH: B1 VH with G50N, G55S, T58K
VL: B1 VL with S30I, S31T, V33L, T51A, Y92D, E93D, T94S
notes: VH/VL only
B9: 366_F08 (antibody, V domains shown)
VH: B1 VH with S33G, G50S, S99G, N101T, A106H
VL: not shown
notes: VH/VL only
B10: 367_B06 (antibody, V domains shown)
VH: B1 VH with S49A, G50N, S59G, S99G, N101T, A106H
VL: B1 VL with S30I, L47V, T51A, R54L, A55H, E93N, T94S
notes: VH/VL only
B11: 368_C11 (antibody, V domains shown)
VH: B1 VH with S31D, G50S, G55S, T58K, S99G, N101T, A106H
VL: B1 VL with S30I, V33L, T51A, E93D, T94N
notes: VH/VL only
B12: 367_B08 (antibody, V domains shown)
VH: B1 VH with S31D, S33G, T58K, S59G
VL: B1 VL with S30L, S31T, V33L, L47V, T51A, E93D, T94N
notes: VH/VL only
B13: 367_D09 (antibody, V domains shown)
VH: B1 VH with S30D, S33G, S49A, G50S, T58K, S99G, N101T, A106H
VL: B1 VL with S30L, S31T, V33L, T51A, R54L, E93D, T94N
notes: VH/VL only
B14: 366_D08 (antibody, V domains shown)
VH: B1 VH with S33G, N35H, G50N, T58K, S99G, N101T, A106H
VL: B1 VL with S30L, L47V, T51A, R54L, T94N
notes: VH/VL only
B15: 369_A11 (antibody, V domains shown)
VH: B1 VH with S30D, S33G, S49A, G50N, T58K, S59G, S99G, N101T, A106H
VL: B1 VL with S30I, S31T, V33L, L47V, T51A, A55H, T94S
notes: VH/VL only
B16: 366_H08 (antibody, V domains shown)
VH: B1 VH with S31D, S33G, S49A, G50S, G55S, A106H
VL: B1 VL with S30L, T51A, A55H, E93N, T94N
notes: VH/VL only
B17: 367_H05 (antibody, V domains shown)
VH: B1 VH with S33G, N35H, S49A, G50S, G55S, T58K, S99G, N101T, A106H
VL: not shown
notes: VH/VL only
B18: 366_H06 (antibody, V domains shown)
VH: B1 VH with S33G, G50S, S59G
VL: B1 VL with S30L, V33L, E93D
notes: VH/VL only
B19: 366_F04 (antibody, V domains shown)
VH: B1 VH with S31D, S33G
VL: B1 VL with S30L, L47V, A55H, T94S
notes: VH/VL only
B20: 367_D05 (antibody, V domains shown)
VH: B1 VH with S31D, G50S, T58K, S99G, N101T, A106H
VL: B1 VL with S30I, L47V, T51A, R54L, E93D, T94S
notes: VH/VL only
B21: 368_H11 (antibody, V domains shown)
VH: B1 VH with S30D, S33G, N35H, S49A, G50S, S99G, N101T, A106H
VL: B1 VL with S30L, V33L, T51A, Y92D, E93D
notes: VH/VL only
B22: 366_G04 (antibody, V domains shown)
VH: B1 VH with G55S
VL: B1 VL with S30I, S31T, V33L, T51A, Y92D, E93D
notes: VH/VL only
B23: 367_B07 (antibody, V domains shown)
VH: B1 VH with S31D, S49A, G55S, S59G, A106H
VL: B1 VL with S30I, T51A, R54L, E93N, T94L
notes: VH/VL only
B24: 368_G03 (antibody, V domains shown)
VH: B1 VH with G55S, S99G, N101T
VL: B1 VL with S30L, V33L, L47V, T51A, E93D
notes: VH/VL only
B25: 367_A02 (antibody, V domains shown)
VH: B1 VH with S30D, S33G, G50S, G55S, T58K, S59G, S99G, N101T, A106H
VL: B1 VL with S30I, V33L, T51V, E93D
notes: VH/VL only
B26: 368_H06 (antibody, V domains shown)
VH: B1 VH with S30D, S33G, N35H, S49A, G50N, T58K, S99G, N101T, A106H
VL: B1 VL with S30L, S31T, E93D, T94N
notes: VH/VL only
B27: 368_F06 (antibody, V domains shown)
VH: B1 VH with S30D, S31D, N35H, S49A, G50N, G55S, S59G, S99G, N101T, A106H
VL: B1 VL with S30L, V33L, L47V, T94N
notes: VH/VL only
B28: 367_F09 (antibody, V domains shown)
VH: B1 VH with S30D, N35H, S49A, S99G, N101T, A106H
VL: B1 VL with S30L, S31T, V33L, T51A, R54L, Y92D, E93S, T94N
notes: VH/VL only
B29: 366_F07 (antibody, V domains shown)
VH: B1 VH with S31D, S49A, G55S, A106H
VL: B1 VL with S30I, S31T, V33L, T51A
notes: VH/VL only
B30: 367_A05 (antibody, V domains shown)
VH: B1 VH with S31D, S33G, G50S, T58K, S59G
VL: B1 VL with S30L, V33L, L47V, T51V, E93D, T94S
notes: VH/VL only
B31: 366_G09 (antibody, V domains shown)
VH: B1 VH with S30D, S31D, S49A, G50S, G55S, S59G, S99G, N101T, A106H
VL: B1 VL with S30L, L47V, T51A, E93D, T94L
notes: VH/VL only
B32: 367_H10 (antibody, V domains shown)
VH: B1 VH with S33G, S49A, G50S, S59G, S99G, N101T, A106H
VL: B1 VL with S30L, L47V, T51A, T94L
notes: VH/VL only
B33: 368_B02 (antibody, V domains shown)
VH: B1 VH with S33G, G55S, T58K, S99G, N101T, A106H
VL: not shown
notes: VH/VL only
B34: 368_G10 (antibody, V domains shown)
VH: B1 VH with N35H, G50S, S99G, N101T, A106H
VL: B1 VL with S30V, L47V, T51A, E93D
notes: VH/VL only
B35: 367_E12 (antibody, V domains shown)
VH: B1 VH with S33G, N35H, S49A, G50S, S99G, N101T, A106H
VL: B1 VL with S30L, S31T, T51A, T52S, R54L, A55Q, E93N, T94S
notes: VH/VL only

Molecular target: Mouse ACVR2A (mouse, UniProt P27038 20-135, limits assumed)
Sequence (P27038 20-135 limits assumed): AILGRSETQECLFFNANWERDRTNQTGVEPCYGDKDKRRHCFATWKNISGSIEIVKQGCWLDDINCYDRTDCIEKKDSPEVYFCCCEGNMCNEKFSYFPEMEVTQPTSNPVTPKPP
Assay: ELISA
Method: (§1) The binding of ACVR2A-specific monoclonal antibodies to human ACVR2A, mouse ACVR2A, biotinylated goat anti-human kappa light chain (positive control) and human Fc (negative control) were determined by ELISA.
Also: test concentration or dose not given here.

optical density | Binder
2.12 OD | B1
2.06 OD | B2
2.67 OD | B3
1.22 OD | B4
2.26 OD | B5
2.28 OD | B6
2.66 OD | B7
2.2 OD | B8
2 OD | B9
1.89 OD | B10
2.21 OD | B11
2.25 OD | B12
2.04 OD | B13
2.46 OD | B14
2.77 OD | B15
2.77 OD | B16
2.7 OD | B17
2.59 OD | B18

optical density | Binder
1.91 OD | B19
1.37 OD | B20
2.13 OD | B21
2.18 OD | B22
1.49 OD | B23
2.75 OD | B24
2.42 OD | B25
2.65 OD | B26
1.68 OD | B27
1.82 OD | B28
2.53 OD | B29
2.38 OD | B30
2.04 OD | B31
2.35 OD | B32
2.24 OD | B33
2.28 OD | B34
2.91 OD | B35

Molecular target: T1, Human ACVR2A (human, UniProt P27037 20-135, limits assumed)
T1 construct: also called activin receptor, type II A
T1 sequence (P27037 20-135 limits assumed): as the sequence (P27038 20-135 limits assumed) above, with R20K, I73V counted along it
Assay: ELISA
Method: as §1

optical density | Binder
2.08 OD | B1
1.94 OD | B2
2.19 OD | B3
1.12 OD | B4
1.93 OD | B5
2.25 OD | B6
2.48 OD | B7
2.14 OD | B8
1.86 OD | B9
1.82 OD | B10
2.03 OD | B11
2.13 OD | B12
2.15 OD | B13
2.17 OD | B14
2.64 OD | B15
2.59 OD | B16
2.44 OD | B17
2.29 OD | B18

optical density | Binder
1.73 OD | B19
1.26 OD | B20
1.95 OD | B21
1.85 OD | B22
1.42 OD | B23
2.73 OD | B24
2.23 OD | B25
2.35 OD | B26
1.6 OD | B27
1.79 OD | B28
2.39 OD | B29
2.22 OD | B30
1.85 OD | B31
2.58 OD | B32
2.08 OD | B33
2.06 OD | B34
2.69 OD | B35

Molecular target: T2, Goat anti-Human Kappa
T2 construct: Positive control; also called biotinylated goat anti-human kappa light chain
Assay: ELISA; positive control
Method: as §1

optical density | Binder
3.46 OD | B1
3.21 OD | B2
3.25 OD | B3
3.05 OD | B4
3.52 OD | B5
3.57 OD | B6
3.44 OD | B7
3.3 OD | B8
3.47 OD | B9
3.02 OD | B10
3.56 OD | B11
3.03 OD | B12
3.37 OD | B13
3.65 OD | B14
3.29 OD | B15
3.55 OD | B16
3.59 OD | B17
3.39 OD | B18

optical density | Binder
3.37 OD | B19
3.34 OD | B20
3.51 OD | B21
3.29 OD | B22
3.34 OD | B23
3.39 OD | B24
3.58 OD | B25
3.61 OD | B26
3.31 OD | B27
3.46 OD | B28
3.47 OD | B29
3.38 OD | B30
3.44 OD | B31
3.55 OD | B32
3.61 OD | B33
3.45 OD | B34
3.71 OD | B35
